Measurements reported in patent US20190151483A1, “METHODS OF MAKING 18F-LABELED PRECURSORS AND PEPTIDES, LABELED C-MET BINDING PEPTIDES, AND METHODS OF USE THEREOF” (The United States of America, as Represented by the …, priority 2016, published 2019).
Bridge positions count the residues as written; N and C are the ends. Ends that are not written are not given here.

What was measured:
[1] = tested on: human prostate cancer cells with known high PSMA expression; assay: In vivo biodistribution and PET images in xenograft mouse models of high-PSMA prostate tumor cell line; conditions: data not shown
c-MET receptors = target: T1, c-MET receptors (Homo sapiens, UniProt P08581); assay: In vitro saturation binding assay with MKN-45, SNU-16 or U87-MG cells
T1 construct: endogenous in cells; host or cells: MKN-45, SNU-16 or U87-MG cells
T1 sequence (P08581 25-1390): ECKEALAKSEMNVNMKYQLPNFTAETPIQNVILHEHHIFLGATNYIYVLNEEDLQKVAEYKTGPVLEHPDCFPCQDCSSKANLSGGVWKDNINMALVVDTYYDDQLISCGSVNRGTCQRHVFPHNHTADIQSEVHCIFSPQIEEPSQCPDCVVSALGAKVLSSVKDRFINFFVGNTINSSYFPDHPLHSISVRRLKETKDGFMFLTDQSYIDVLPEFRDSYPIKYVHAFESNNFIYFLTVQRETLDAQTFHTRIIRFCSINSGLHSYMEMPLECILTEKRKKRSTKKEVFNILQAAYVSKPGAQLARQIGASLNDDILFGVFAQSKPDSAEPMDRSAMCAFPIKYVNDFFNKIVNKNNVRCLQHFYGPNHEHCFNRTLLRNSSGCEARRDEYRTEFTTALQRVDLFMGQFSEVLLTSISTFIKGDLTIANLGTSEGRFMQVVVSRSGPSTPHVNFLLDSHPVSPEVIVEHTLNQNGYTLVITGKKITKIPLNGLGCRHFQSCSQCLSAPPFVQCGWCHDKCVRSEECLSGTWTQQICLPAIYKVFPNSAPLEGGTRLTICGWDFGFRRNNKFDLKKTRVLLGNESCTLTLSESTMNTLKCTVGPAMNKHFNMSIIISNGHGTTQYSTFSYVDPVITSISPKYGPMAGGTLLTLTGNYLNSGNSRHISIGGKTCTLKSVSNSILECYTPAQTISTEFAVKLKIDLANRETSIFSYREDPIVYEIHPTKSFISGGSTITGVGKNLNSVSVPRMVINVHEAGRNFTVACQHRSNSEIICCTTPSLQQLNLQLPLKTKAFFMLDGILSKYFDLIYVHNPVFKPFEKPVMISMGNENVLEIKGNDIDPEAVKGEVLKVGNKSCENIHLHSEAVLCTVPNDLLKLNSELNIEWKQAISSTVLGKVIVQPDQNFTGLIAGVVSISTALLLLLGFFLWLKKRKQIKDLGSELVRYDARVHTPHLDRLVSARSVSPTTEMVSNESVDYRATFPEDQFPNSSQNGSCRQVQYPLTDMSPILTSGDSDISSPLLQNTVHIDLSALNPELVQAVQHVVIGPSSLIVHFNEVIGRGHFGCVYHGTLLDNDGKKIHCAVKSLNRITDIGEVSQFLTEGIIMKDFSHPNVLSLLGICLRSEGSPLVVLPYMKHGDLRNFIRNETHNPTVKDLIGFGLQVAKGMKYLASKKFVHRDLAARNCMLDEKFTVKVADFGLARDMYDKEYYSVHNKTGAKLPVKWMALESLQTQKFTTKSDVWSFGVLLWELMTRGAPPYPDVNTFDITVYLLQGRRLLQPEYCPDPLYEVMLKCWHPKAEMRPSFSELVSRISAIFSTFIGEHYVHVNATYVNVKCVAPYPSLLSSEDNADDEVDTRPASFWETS
Protocol: In vitro saturation assays were performed to determine the binding affinity of Compound 1 for c-MET receptors. Increasing concentrations of Compound 1 were incubated with MKN-45, SNU-16 or U87-MG cells. Non-specific binding was determined in the presence of an unlabeled Met peptide (10^−5 M). Bound peptide was separated from free peptide and the radioactive content was determined. Data was analyzed using a one site binding hyperbola. […] The binding constant was determined to be 3.9 nM. In addition, the estimated Met expression levels (2.4×10^6 receptors per cell) were consistent with known expression in MKN-45, SNU-16, and U87-MG cells. […] (data not shown)

[2] = tested on: SNU-16 (moderate Met) xenografts; type: in vivo, mouse
[3] = tested on: U87-MG (low Met) xenografts; type: in vivo, mouse
[4] = tested on: MKN-45 (high Met) xenografts
[5] = reported labeled albumin; cited from earlier work

O=C(O)CC[C@H](NC(=O)N[C@@H](CCCCNC(=O)c1ccc([18F])nc1)C(=O)O)C(=O)O [[^18F]DCFPyL]
biodistributions and PET images vs previously reported results [1]: comparable with previously reported results

Compound 1: 18F-labeled c-Met peptide; cyclic peptide of SEQ ID NO: 1 reacted with [18F]fluoronicotinic acid-2,3,5,6-tetrafluorophenyl ester (AGSCYCSGPPRFECWCYETEGTGGGK; disulfide 6-14, 4-16; also: [18F]fluoronicotinoyl conjugated via tetrafluorophenyl ester, site not given here)
specific binding to Met (c-MET receptors; MKN-45 cells, non-specific binding with unlabeled Met peptide 10^−5 M): > 90%
Kd (c-MET receptors; MKN-45 cells, saturation assay, one site binding hyperbola, read-out: binding constant): 3.9 nM
ability to distinguish c-MET concentrations (c-MET receptors; SNU-16 and U87-MG cell lines, data not shown): can distinguish c-MET concentrations
estimated Met expression levels (c-MET receptors; from saturation binding): 2.4×10^6 receptors per cell
PET tumor discernibility ([2]; SNU-16 tumors): discernable
Tumor:Muscle ratio over time course ([2]; mouse, in vivo): 7:1-18:1
fold decrease of T:M vs MKN-45 T:M ([2]; mouse, in vivo): 2-60 fold
fold decrease of tumor uptake vs MKN-45 tumors ([2]; mouse, in vivo): 2-6 fold
PET tumor discernibility ([3]; U87-MG tumors): more difficult to distinguish
Tumor:Muscle ratio over time course ([3]; mouse, in vivo): 3:1-5:1
fold decrease of tumor uptake vs MKN-45 tumors ([3]; mouse, in vivo): 3-40 fold
PET visualization ([4]; MKN xenografts, 30 to 120 min post-injection): tumors, kidneys and bladder could be visualized
PET tumor discernibility ([4]; MKN-45 and SNU-16 xenografts, images at 30, 60, 120 min): discerned as early as 30 min
decrease of T:M ratio on blocking with unlabeled Met peptide ([4]; MKN-45 xenografts, compared to unblocked): 65%
decrease of tumor uptake from 30 to 120 min ([4]; mouse, in vivo): approximately 37%
tumor retention and non-target clearance ([4]; mouse, in vivo): highly retained in MKN-45 tumors (high Met expression) and rapidly cleared from non-target tissue

B1: [^18F]albumin: albumin radiolabeled by conjugating Compound 3 to pendant amine groups (protein, UniProt P02770 25-608, looked up)
Albumin: EAHKSEIAHRFKDLGEQHFKGLVLIAFSQYLQKCPYEEHIKLVQEVTDFAKTCVADENAENCDKSIHTLFGDKLCAIPKLRDNYGELADCCAKQEPERNECFLQHKDDNPNLPPFQRPEAEAMCTSFQENPTSFLGHYLHEVARRHPYFYAPELLYYAEKYNEVLTQCCTESDKAACLTPKLDAVKEKALVAAVRQRMKCSSMQRFGERAFKAWAVARMSQRFPNAEFAEITKLATDVTKINKECCHGDLLECADDRAELAKYMCENQATISSKLQACCDKPVLQKSQCLAEIEHDNIPADLPSIAADFVEDKEVCKNYAEAKDVFLGTFLYEYSRRHPDYSVSLLLRLAKKYEATLEKCCAEGDPPACYGTVLAEFQPLVEEPKNLVKTNCELYEKLGEYGFQNAVLVRYTQKAPQVSTPTLVEAARNLGRVGTKCCTLPEAQRLPCVEDYLSAILNRLCVLHEKTPVSEKVTKCCSGSLVERRPCFSALTVDETYVPKEFKAETFTFHSDICTLPDKEKQIKKQTALAELVKHKPKATEDQLKTVMGDFAQFVDKCCKAADKDNCFATEGPNLVARSKEALA
modifications: 18F-labeled via Compound 3
notes: albumin radiolabeled by conjugating Compound 3 to pendant amine groups
blood pool imaging property [5]: excellent blood pool imaging property
